# Biological target: T1, H-2 K^d molecules purified by affinity chromatography (human, UniProt P61769 21-119; P01902 22-305)
# T1 construct: MHC class I molecule, 1-10 nM in the assay, with added human beta-2 microglobulin; also called purified MHC molecules
# Assay: radiolabeled peptide inhibition assay, purified H-2 K^d
# Text: (§1) Binding assays. […] Under the conditions utilized, where [label]<[MHC] and IC₅₀≧[MHC], the measured IC50 values are reasonable approximations of the KD values.
row,Binder,IC50 [nM]
1,LYHTRPTAL (Mut of L(y/D)HTRPTAL; Meth A) [Kdm4b Mut peptide],264
2,PALKSEEKTL (CMS5) [Stau1.3 Mut peptide],69500
3,PDLTQYAIIM [Dhx8.4 WT peptide],6260
4,VYLTCRLEKPA (Meth A) [Gapdh Mut peptide],1150
5,ADILAALTKL [Trim26.1 WT peptide],1.1
6,AYILAALTKL (Meth A) [Trim26.1 Mut peptide],622
7,GDSVLHLAI (WT of G(y/D)SVLHLAI) [Nfkb1 WT peptide],1620
8,AYILAALTKLQ (Meth A) [Trim26.2 Mut peptide],17600
9,LDYERIHKKML [Ugdh WT peptide],12
10,LYYERIHKKML (Meth A) [Ugdh Mut peptide],600
11,ELQGLLEDER [Ccdc136 WT peptide],4540
12,HYLQGSNA (Mut of H(y/D)LQGSNA; Meth A) [Fiz1 Mut peptide],2470
13,PDLTQYAIIML [Dhx8.1 WT peptide],1650
14,PYLTQYAIIML (CMS5) [Dhx8.1 Mut peptide],2190
15,KLQRQYRSPRR [Mast2 WT peptide],8510
16,KLQRQYRSPRL (CMS5) [Mast2 Mut peptide],10100
17,PDLTQYAII (WT of P(y/D)LTQYAII) [Dhx8.3 WT peptide],1420
18,PYLTQYAII (Mut of P(y/D)LTQYAII; CMS5) [Dhx8.3 Mut peptide],244
19,PDKRLKAEPA [Prrc2a WT peptide],261
20,PYKRLKAEPA (Meth A) [Prrc2a Mut peptide],1450
21,AYAKQFAAI (Mut of A(y/D)AKQFAAI; Meth A) [Ube4a.1 Mut peptide],12

# More lines, now with the values ahead:
row,IC50 [nM],Binder
1,1640,EYLDLQTQ (Mut of E(y/D)LDLQTQ; Meth A) [Zfp236.1 Mut peptide]
2,5110,SEDKIKAIP [Rangap1 WT peptide]
3,146,LDMLQALCI (WT of (sy/LD)MLQALCI) [Tnpo3 WT peptide]
4,1410,LYDVDAAF (Mut of L(y/D)DVDAAF; Meth A) [Cpsf2 Mut peptide]
5,17,SDRLPSSRKK [M112 WT peptide]
6,6570,PYLTQYAIIM (CMS5) [Dhx8.4 Mut peptide]
7,47100,DYVPMEQPRPP (CMS5) [Alkbh6.4 Mut peptide]
8,27100,LYVSKLNGP (Mut of L(y/D)VSKLNGP; Meth A) [Galnt1 Mut peptide]
9,0.26,GYSVLHLAI (Mut of G(y/D)SVLHLAI; Meth A) [Nfkb1 Mut peptide]
10,28600,AYAKQFAA (Mut of A(y/D)AKQFAA; Meth A) [Ube4a.2 Mut peptide]
11,58,"KYMSMLEER (Mut of K(y/D)MSMLEER; Meth A) [Ckap5 Mut peptide (Table 5, 9-mer)]"
12,82,SYMLQALCI (Mut of (sy/LD)MLQALCI; Meth A; also called mutant Tnpo3 peptide; sy-MLQALCI) [Tnpo3 Mut peptide]
13,51600,GFHGCIHEVL (CMS5) [Slit3 Mut peptide]
14,143,IYGVVARNRAL (Mut of I(y/D)GVVARNRAL; Meth A) [Dis312.1 Mut peptide]
15,60900,DYVPMEQP (Mut of D(y/D)VPMEQP; CMS5) [Alkbh6.1 Mut peptide]
16,7050,QVFPGLMER [Atxn10.1 WT peptide]

# Biological target: T1, H-2 K^d molecules purified by affinity …
# Assay: as above
# Remark: another data set of the same source
# Text: as §1
row,Binder,IC50 [nM]
1,AYCETCWEW [Apc WT peptide],60
2,CYAKLKEQL (WT of CYAK(v/L)KEQL) [Ssx2ip WT peptide],3.2
3,CYAKVKEQL (Mut of CYAK(v/L)KEQL; CMS5) [Ssx2ip Mut peptide],26
4,NYLLSLVAVVL [Serinc1 WT peptide],20900
5,NYLLSLVAVML (CMS5) [Serinc1 Mut peptide],2680
6,YYVPLLKRVPS [Alms1.2 WT peptide],1480
7,YYVPLLKRVPL (Meth A) [Alms1.2 Mut peptide],421
8,HYINMSLPI (WT of HYINM(i/S)LPI) [Ufsp2 WT peptide],< 0.1
9,HYLSAILRL (WT of HYLS(s/A)ILRL) [Pacs2 WT peptide],1270
10,TYIRPFETKV (Mut of TYIRP(f/L)ETKV; Meth A) [Ccdc85c Mut peptide],6160

# Results, then the binder that gave them:
row,IC50 [nM],Binder
1,23,AYCETCWEL (Meth A) [Apc Mut peptide]
2,0.23,HYINMILPI (Mut of HYINM(i/S)LPI; Meth A) [Ufsp2 Mut peptide]
3,41,HYLSSILRL (Mut of HYLS(s/A)ILRL; Meth A) [Pacs2 Mut peptide]

# Reference: patent US20150252427A1 (UNIVERSITY OF CONNECTICUT, published 2015)
